The supplement of paper PMC9112550, “Optimization of the antimicrobial peptide Bac7 by deep mutational scanning” (BMC Biology, 2022)

Tested on: Escherichia coli TOP10
Experiment: shrunken log2 fold change of peptide-encoding DNA abundance (4.5 h post-induction vs induction); higher = less antimicrobial activity (less host growth inhibition)
Conditions: time post-induction: 4.5 h; library: site-saturation at positions 5, 18, 19, 20
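Note: peptides expressed intracellularly from a pBAD plasmid library in pooled LB shake-flask culture, induced with 0.3% L-arabinose, DNA abundance read by NGS, three biological replicates, DESeq2 with apeglm shrinkage.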

RRIRDRPPRLPRPRPRPPPNPRP
shrunken log2 fold change: 0.84

RRIRPRPPRLPRPRPRPRMRPRP
shrunken log2 fold change: 0.92

RRIRLRPPRLPRPRPRPTMAPRP
shrunken log2 fold change: -0.283

RRIRFRPPRLPRPRPRPTNEPRP
shrunken log2 fold change: -0.264

RRIRLRPPRLPRPRPRPQITPRP
shrunken log2 fold change: -0.294

RRIRHRPPRLPRPRPRPLGQPRP
shrunken log2 fold change: 0.0866

RRIRQRPPRLPRPRPRPWGRPRP
shrunken log2 fold change: 0.00592

RRIRERPPRLPRPRPRPQIKPRP
shrunken log2 fold change: -0.723

RRIRRRPPRLPRPRPRPFIGPRP
shrunken log2 fold change: -0.25

RRIRIRPPRLPRPRPRPTNWPRP
shrunken log2 fold change: -0.128

RRIRARPPRLPRPRPRPCLVPRP
shrunken log2 fold change: 0.0528

RRIRNRPPRLPRPRPRPACQPRP
shrunken log2 fold change: -0.0318

RRIRNRPPRLPRPRPRPNPMPRP
shrunken log2 fold change: -0.0603

RRIRIRPPRLPRPRPRPQPRPRP
shrunken log2 fold change: 0.343

RRIRRRPPRLPRPRPRPRGEPRP
shrunken log2 fold change: 0.739

RRIRARPPRLPRPRPRPPMQPRP
shrunken log2 fold change: 0.781

RRIRNRPPRLPRPRPRPLQRPRP
shrunken log2 fold change: 0.0374

RRIRMRPPRLPRPRPRPQYFPRP
shrunken log2 fold change: 0.00454

RRIRWRPPRLPRPRPRPCYCPRP
shrunken log2 fold change: -0.247

RRIRDRPPRLPRPRPRPTGRPRP
shrunken log2 fold change: 0.134

RRIRARPPRLPRPRPRPRCKPRP
shrunken log2 fold change: 0.51

RRIRLRPPRLPRPRPRPCTPPRP
shrunken log2 fold change: -0.172

RRIRLRPPRLPRPRPRPAQLPRP
shrunken log2 fold change: 0.166

RRIRIRPPRLPRPRPRPSSKPRP
shrunken log2 fold change: -0.599

RRIRMRPPRLPRPRPRPIRQPRP
shrunken log2 fold change: -0.0521

RRIRYRPPRLPRPRPRPYRAPRP
shrunken log2 fold change: -0.0919

RRIRMRPPRLPRPRPRPEDEPRP
shrunken log2 fold change: 2.06

RRIRCRPPRLPRPRPRPRINPRP
shrunken log2 fold change: -0.0891

RRIRRRPPRLPRPRPRPVNSPRP
shrunken log2 fold change: -0.0287

RRIRARPPRLPRPRPRPQQQPRP
shrunken log2 fold change: 0.946

RRIRIRPPRLPRPRPRPEDLPRP
shrunken log2 fold change: -0.00555

RRIRQRPPRLPRPRPRPQLRPRP
shrunken log2 fold change: -0.165

RRIRTRPPRLPRPRPRPVWDPRP
shrunken log2 fold change: 0.13

RRIRKRPPRLPRPRPRPNKEPRP
shrunken log2 fold change: -0.0272

RRIRDRPPRLPRPRPRPTFEPRP
shrunken log2 fold change: 0.527

RRIRWRPPRLPRPRPRPPAAPRP
shrunken log2 fold change: 0.913

RRIRSRPPRLPRPRPRPGWAPRP
shrunken log2 fold change: 0.706

RRIRGRPPRLPRPRPRPKGYPRP
shrunken log2 fold change: 0.214

RRIRVRPPRLPRPRPRPFWSPRP
shrunken log2 fold change: 0.0887

RRIRSRPPRLPRPRPRPNVCPRP
shrunken log2 fold change: -0.0635

RRIRTRPPRLPRPRPRPRYAPRP
shrunken log2 fold change: 0.108

RRIRFRPPRLPRPRPRPRRPPRP
shrunken log2 fold change: 0.668

RRIRDRPPRLPRPRPRPETTPRP
shrunken log2 fold change: 0.0986

RRIRERPPRLPRPRPRPHTPPRP
shrunken log2 fold change: 0.229

RRIRLRPPRLPRPRPRPIHQPRP
shrunken log2 fold change: 0.0518

RRIRVRPPRLPRPRPRPTRAPRP
shrunken log2 fold change: 0.665

RRIRIRPPRLPRPRPRPPYCPRP
shrunken log2 fold change: -0.328

RRIRERPPRLPRPRPRPRAYPRP
shrunken log2 fold change: -0.125

RRIRHRPPRLPRPRPRPWFSPRP
shrunken log2 fold change: -0.294

RRIRIRPPRLPRPRPRPFSVPRP
shrunken log2 fold change: -0.248

RRIRWRPPRLPRPRPRPYMGPRP
shrunken log2 fold change: -0.106

RRIRARPPRLPRPRPRPSGKPRP
shrunken log2 fold change: -0.0838

RRIRYRPPRLPRPRPRPYQKPRP
shrunken log2 fold change: -0.0257

RRIRVRPPRLPRPRPRPLYRPRP
shrunken log2 fold change: -0.047

RRIRLRPPRLPRPRPRPWMFPRP
shrunken log2 fold change: -0.108

RRIRDRPPRLPRPRPRPLQEPRP
shrunken log2 fold change: 0.223

RRIRVRPPRLPRPRPRPKLMPRP
shrunken log2 fold change: -0.203

RRIRHRPPRLPRPRPRPCINPRP
shrunken log2 fold change: -0.306

RRIRPRPPRLPRPRPRPHSIPRP
shrunken log2 fold change: -0.418

RRIRERPPRLPRPRPRPFLMPRP
shrunken log2 fold change: -0.209
